Test results taken from a protein production outcome set (Wang et al. 2014).

Experiment: label from the status in PepcDB records

Row | Sequence | protein production
1 | MSDLTKVFIAPEEIVNFLKKNMQLKEVYQKILFQRLILQVAEARGITVTTEEIEAEANRQRREKRLEKAADTMAWLADQLASPEDWEMGIRDRLLSQKLANFLFADKVEAFFIQNQLEFEQVSLYQIIVDSEKLAQEIYYQIEDEEISFYEAAYLYDVDAVRRQRCGYEGKVYRFSLPVNVATVIFRTSPKQLISPLQTEQGYHLFMVEEFIPAELTGERYQEILNNMFNQWLITELNKILN | failed
2 | MEIEVKFRVNFEDIKRKIEGLGAKFFGIEEQEDVYFELPSPKLLRVRKINNTGKSYITYKEILDKRNEEFYELEFEVQDPEGAIELFKRLGFKVQGVVKKRRWIYKLNNVTFELNRVEKAGDFLDIEVITSNPEEGKKIIWDVARRLGLKEEDVEPKLYIELING | not failed
3 | MSEDRTGHQGISGPATRAIHAGYRPDPATGAVNVPIYASSTFAQDGVGGLRGGFEYARTGNPTRAALEASLAAVEEGAFARAFSSGMAATDCALRAMLRPGDHVVIPDDAYGGTFRLIDKVFTRWDVQYTPVRLADLDAVGAAITPRTRLIWVETPTNPLLSIADITAIAELGTDRSAKVLVDNTFASPALQQPLRLGADVVLHSTTKYIGGHSDVVGGALVTNDEELDEEFAFLQNGAGAVPGPFDAYLTMRGLKTLVLRMQRHSENACAVAEFLADHPSVSSVLYPGLPSHPGHEIAARQMRGFGGMVSVRMRAGRRAAQDLCAKTRVFILAESLGGVESLIEHPSAMTHASTAGSQLEVPDDLVRLSVGIEDIADLLGDLEQALG | not failed
4 | MEDYGFEYSDEEQEEQDVDIENQYYNSKGMVETEPEEALSGFAEVVQMEPEKADWGFKALKQTVKIYYRLGKYKEMMEAYTEMLTYIKSAVTRNYSEKCINNIMDFVSGSASQNTGLLQEFYQTTLKALEEAKNERLWFKTNLKLCNIWFDIGEYRRMTKILKELHKSCQKEDGTDDQKKGSQLLEVYAIEIQIYTETKDNKKLKQLYHKALAIKSAIPHPRIMGIIRECGGKMHMAERQWEEAATDFFEAFKNYDEAGNQRRIQCLKYLVLANMLMESEVNPFDGQEAKPYKNDPEILAMTNLIAAYQRNEIIEFERILKSNRRTIMDDPFIRNYMEDLLKKVRTQVLLKLIKPYTKIGIPFISKELNVPETDVTELLVSLILDSRIDGHIDEMNRYLLRGDSGNGRKLHKAVDKWNSQLKSLSSNITSRVC | failed
5 | MKLHTSDLLIICAYLIAMIVIGLILKKRAAQNMDSYFLGGKSLPFYMLGLSNASGMFDITGTMLMVYWAFAYGFKSLWIPWLWPVFNQIFLMVYLSVWLRRSNVLTGAEWIKTRFGKGKGATLSHTIVVVFALLSVLGFLSYGFIGIGKFMEIFIPWEVISPYIPFTVSPEYVPHVYGIFFTAIATFYVMLGGMLSIVWTDVVQFLIMTVAGIVIVVIGMQMVAPDMIHSFVPAGWDSPFFGWTLDIDWSSRMSLLTERMANEPYSLIGIFVMMALLKGIFMSMAGPAPNYDMQKILSCKSPKEAAMMSGSVSVVLLIPRYLMIMGFALLAIYFFKEDGGLTQMEVTRTDFETILPHLITRYVPAGFAGLLLAGLLAAFMSTFASTVNAAPAYIVNDIYLKYINPKASVKTQIRSSYVISVAVVVVSTVIGFFLKDINEIFQWIVGALFGGYIAANVLKWHWWRFNGEGYFWGMTAGVVAAIVMKFTVPDAWVLYFFPVLFGVSLIGCIIGTYSAPATDEETLINFYVNVRPWGCWKPIQEKAIARYPHIQANKNFKRDAFNVAIGIIWQCTLTIIPMYLVVREQLGLWSSIALLLITTLILRKTWYKPLCKEEARYNEEMKQIR | failed
6 | MANTATDQRADTLMLVHVPADRKKTYAISLMRDLWIDIPGVGESKINAALAYGGVPLMVQTVESLLQQRIDHVAMIDFQGFKGLTDALGGVEVDVRIPFAPSSGPKAGQVYDAGKQTLNGDEALAFVRERKAFSDGDYQRVRNQQAYLKAIIGKVIARETLTNPVTISNMVSAVSPFVSVDKDFDAAAIGSLALSMKDVRAQDTVMFTLPTLGTGTSPDGQSIVLADTTAIADVTAALAKDQVDAYITAHALDKGFLEHHHHHH | not failed
7 | DRSRLQCYSEDVTEYRKMEQGLNDLHHRLQAYREYSATGFLLVDARTKTVVEANSAFCQLLGYEESEVLDFTLYQLIAAERPVIEELLINLETQNYLSVPELEYRNREGQTVQVKGEVYRLPWEDREVYCFVMRT | failed
8 | LLLTRPDEECAALAASLGEAGVHSSSLPLLAIDPLEETPEQRTLMLDLDRYCAVVVVSKPAARLGLERLDRYWPQPPQQTWCSVGAATAAILEAYGLDVTYPEQGDDSEALLALPAFQDSLRVHDPKVLIMRGEGGREFLAERLRGQGVQVDYLPLYRRRAPDYPAGELLARVRAERLNGLVVSSGQGLQNLYQLAAADWPEIGRLPLFVPSPRVAEMARELGAQRVIDCRGASAPALLAALTSAA | failed
9 | ANLYWFRADWFERPDLKKKFKDKYGYELGVPVNWSAYEDIAKFFSEDVKEIDGKKVFGHMDYGKKDPSLGWRFTDAWFSMAGSGDKGLPNGLPVDEWGIRVEDCHPVGSSITRGGDTNGPAAVFATQKYIDWLKAYAPPEAAGMTFSESGPVPSQGNVAQQIFWYTAFTADMTKPGLPVMNADGTPKWRMAPSPKGPYWKEGMKLGYQDVGSWTFLKSSDEKKRLAAWLYAQFVTSKSVSLKKTIVGLTPIRESDINSK | failed
10 | MEVKGFIEIMRPHNCILAGIVGILGALVAYEGIPDIKTLTLIFWVVYFGCSGGNTANDYFDYEIDKINRPNRPLPRGAMSRRAALYYALLQYAIGSILAYFLNIRAFVFATIAYFLTFLYGWKLKPLPLVGNITVAALTAATPIYGAIGVGRIGLAGYLAICAFLVNVSREIMKDIEDIEGDKALGARTLPIIIGEKKAAIIAAIFGFLTVIASFLPVKVGIGLGYAPIIIVDIIIIKASIDVLRDPKAASKGQKLLKIATFVAVISFLAGALTKGV | failed
11 | MSPIALARLLTLAAVWGASFLFMRIIAPELGTVPTAFFRVSIACLGLIVILAAARVRWNFQGKLGACLVLGMINSGIPATFYSVAAQVLPAGYSAIFNATTPLMGVLVGVLFFREPMTLAKLCGIFLGLFGVGILSGAGPVALDMALLQGALACLAATTCYGFAGFLARRWISGLDSRLSALGSMLGATLMLTPLFGWSALTQPPASWGGWEVWLSLLGLGLLCTAFAYILYFRLLEEIGPVKASTVTFLIPVFGVLWGAWLLNEPLSMAHLYGGLLIGLALWLVLRPARS | failed
12 | MSAEATPESTLPGTAAETSPDNPWPLQLLSRKLKAHIERAPAAWIEGQVIELNRRGGNAFLTLRDVDAEISLPASVWSTVLDRQKVPLERGSRVVALVKADFWVKTGRLNMSVKDIRPVGLGDLLARIERLRQALAAEGLFADSRKRKLPLLPHRIGLITGRESDAKKDVMRNAALRWPAVEFDVREVAVQGNTAVSQIIAALKRLDADPHVDVIVLARGGGALEDLLPFSNEDLIRAVSAATTPVVSAIGHEADRPILDDVADLRASTPTDAAKRIVPDVAEELAMVRQARDHLRRSISRMVDRETDRLHALRSRPVLASPASMVDARSEDIHRLQRRTHSAVSTAVVRALDQVHHLRAQVRALSPQKTLDRGYAVVQLVGEDQAGHHVVSSPDEAPDGTPLSIRVAEGRFRAVSAGAGQLVEH | failed
13 | MNSKFKGIIFMILASAAFATMNLLSKLAVGVNSYQKTFLTNVVATLIVCFIIAYKKGSFFGKKESRKYLLVRGVTGTLSILTNYYALDKMFLSDATILTKLAPFFTIIFSYLLISEKITKKQFTLLIVAFAGSLFVIKPQFSTAIIPSLIGVASAAFAGIAYTMIRVIGDKEDFWTIILSFTSIATIVMLPSMFMNTDNLTLQNILLLVSAGIAFTLGQVALTIAYKNAPASEISMYDYIGLIIAAIYGFMFFKEIPDFLSFTGYIIIVGSSLLNILGNKKTSNKEINEDSSLVSTD | failed
14 | SYMYDRDGSLVSEIVSDHENRVLVPFNKIPEEVKQIFLTSEDRHFYEHKGFDFMGMVPPTASNVKDKKIDQGASTITQQLSRNLYLSHERSFSRKLTELAYSYQLEKKYTKNEILEAYLNTIYFNNGVYGVGSAAQFYFSKPLKSLTVGEMAFICAIPNNPTLYDPLKHF | failed
15 | MDREQVVALQHQRFAAKKYDPNRRISQKDWEALVEVGRLAPSSIGLEPWKMLLLKNERMKEDLKPMAWGALFGLEGASHFVIYLARKGVTYDSDYVKKVMHEVKKRDYDTNSRFAQIIKNFQENDMKLNSERSLFDWASKQTYIQMANMMMAAAMLGIDSCPIEGYDQEKVEAYLEEKGYLNTAEFGVSVMACFGYRNQEITPKTRWKTEVIYEVIE | not failed
16 | MNANYVSKKPYIVTIACTKGGSAKSTNAANIGAFCADHGLRTLLIDTDTQPTLSSYYSLAKTAPGGIYEFLLQRDVEPSHIVSQTSIKNLDLIQSNDPSNNVSHMLRNAPDGSIRFSHLIKSINNYDVIVIDTRGTRDITVDMSVLAADILFCPILPQILSAKEFIRGTIGMYQDLQTFESFGFKLPPLKAIANGVDNTNDVKFVMQKLHTLFANTFDESKTLLDFSIPYHVAYREAVTYALPVYRHSAVEYPVMQQLCCLLLPQFKENFEKPMQRGLEHHHHHH | not failed
17 | EDDKLKSVEALRQKGNELFVQKDYKEAIDAYRDALTRLDTLILREKPGEPEWVELDRKNIPLYANMSQCYLNIGDLHEAEETSSEVLKREETNEKALFRRAKARIAAWKLDEAEEDLKLLLRNHPAAASVVAREMKIVTERRAEKKADSRVTYSKMFQP | not failed
18 | FDKLGNSAAIQEMNREVEAAAKRTSPVFLTGEAGSPFETVARYFHKNGTPWVSPARVEYLIDMPMELLQKAEGGVLYVGDIAQYSRNIQTGITFIIGKAERCRVRVIASCSYAAGSDGISCEEKLAGLFSESVVRIPPLS | not failed
19 | MTLIRWNPWQDLNTLQRQLNHLFEEDMLPSTLLERTLTRVPAAELHETAEVIYLKLELPGIDAKDVDLQVTDKAVYISGERKSETKTEDKGVFKSEFQYGKFQRVIPLPARIQNTNVTAEYKDGILNLTLPKAEVEKNKVVKINIESAAGLEHHHHHH | not failed
20 | MYTITDIAPTDAEFIALIAALDAWQETLYPAESNHLLDLSQLPPQTVIALAIRSPQGEAVGCGAIVLSEEGFGEMKRVYIDPQHRGQQLGEKLLAALEAKARQRDCHTLRLETGIHQHAAIALYTRNGYQTRCAFAPYQPDPLSVFMEKP | failed
21 | MSKKVIADVFLEVANAIESGEFGKKVKIGVTTLGSEHGVENMVNGAQLAKSNLFDIVLIGPKVETDLEVVEVNDEKEMHAKMEELLDSGYIDACVTMHYNFPIGVSTVGRVITPAKGKEMILATTTGTSATNRIEAMVRNAIYGIATAKSMGNKCPKVGILNVDGARQVEKCLKELKDNGYDMEFADSIRADGGCVMRGNDLLVGAPDVMVTDTLSGNIFMKVFSSYTTGGDYEAQGFGYGPGVGEDYDRKVLIVSRASGSPVVANALKYAYDVVKGDISNVARNEFAKVKKAKFDDIISSLTKKEVKAEKVEVKMPDKEIVTRQIAGVDIMDLEDAVSELWKNGIYAESGMGCTGPIVLVNEAKGDLAVETLVKAGYTAK | failed
22 | MIAITLLVVIDQVALSQTFPILTIIYALATILPAWGVLVRRLHDIGRSGWWMLISCVPLVGGIILFVFTVMDSQQGDNQFGASPKAAL | failed
